From the nanobody polyreactivity screen of Harvey et al. (2022)

Test: yeast display, Sf9 membrane polyspecificity reagent, FACS + sequencing; frameworks hold sequencing errors
Summary of the method: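 Sorting gates, low and high (top ~1%), were placed on anti-HA fluorescence to track expression and on streptavidin fluorescence to track reagent binding. A clone's polyreactivity label is taken from the gate it came out of. The reagent was 10% biotinylated, detergent-solubilized Sf9 membrane, applied for 1 hour at 4 °C to galactose-induced yeast display cells.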

Row | Sequence | polyreactivity (PSR sort gate)
1 | QVQLVESGGGLVQAGGSLRLSCAPSGITFRHYALGGYRQAPGKERELVAAITSRGGSTYYADSVKGRFTISRDNAKNTVYLQMNSLKPEDTAVYYCNKRLYYQRWPAAAREYWGQGTQVTVSS | high polyreactivity
2 | QVQLVESGGGLVQAGGSLRLSCSASGRTLTRYTMGWYRKAPGKERELVAGITRSGGSTYYADSVNGRFTISRDNAKNTVYLKMNSLKPEDTAVYYCAVKQRDKFAGGRNDYWGQGTQVTVSS | high polyreactivity
3 | QVQLVESGGGLVQAGGSLRLSCAASGNIFSDYAMGSYRQAPGKERELVAAISSGGNTNYADSVKGRFSISRDNAKKTVYLQMNSLKPEDTAVYYCAAFYNTTYTLLPAYSDVNYYYWGQGTQVTVSS | low polyreactivity
4 | QVQLVESGGGLVQAGGSLRISCAASGSIFQGYAMGWYRQAPGKERELVATITWSGGSTYYADSVTGRFTISRDNAKNTVYLQMNSLKPEETAVYYCNADSNGYYLWNYYGMYDYWGQGTEVTVSS | low polyreactivity
5 | QVQLVESGGGLVQAGGSLRLSCAASGGTFKFFAMGLYRQAPGKERELVAAITSGGSTNYADSVKGRFTISRDNAKNTVYLQMNRLKPEDTAVYYCAVDSLPNSPYDYWGQGTQVTVSS | low polyreactivity
6 | QVQLVESGGGLVQAGGSLRLSCAASGSTFQPYAMGWYRPAPGKERELVAAIRYSGGITYYADSVKGRFTISRDNAKNSVYLQMNSLKPEDTAVYYCAAYGFYGGDYWGQGTQVTVSS | high polyreactivity
7 | QVQLVESGGGLVQAGGSLRLSCAASGRIFYSNTMGWYRQAPGKERELVAAITWRGGRTHYADSVKGRLTISRDNAKNPVYLQMNSLTPEDTAVYYCAARYIPIQYPSYRTWGGYSWGQGTQVTVSS | high polyreactivity
8 | QVQLVESGGGLVQAGGSLRLSCAASGRTFGSYVMGWYRQAPGKERELVAAISSRGTRTYYADSVKGRFTISRDNAKNTVYLQMNSLKPEDTAVYYCAAEWPYRFQYGEMDYWGQGTQVTVSS | high polyreactivity
9 | QVQLGESGGGLVQAGGSLRLSCAASGRTFDYYAMGWYRQAPGKEWQLVAAISGSGGTTYYADSVKGRFTISRENAKNTVYLQMNSLKAEDTAVYNCDTVRSRLFGQYYYWGQCTQVTVSS | high polyreactivity
10 | QVQLVESGGRLVQAGGSLRLTCAASGSTFTTYAMGWSRQAPGKERELVAAITSGSSTNYADSVKGRFTISRDNAKNTVYLQMNSLKPEDTAVYYCAVDREWPGYYYAISKMYYWGQGTQVTVSS | low polyreactivity
11 | QVQLVESGGGLVQAGGSLRLSCAASGFTYRRYAMGWYRQAPGKERELVAAITWSGGSTYYADSVKGRITISRDNAKNTVYLQMNSLKPEDTAVYYCNKAYSPLYFSYNYWGQGTQVTVSS | high polyreactivity
12 | QVQLVESGGGLVQAGGSLRLICAASGGTFRYYTMVWYRQAPGKERELVAAITRGGRTYYADSVKGRFTISRDNAKNTVYIQMNSLKPEDTAVYYCAGVRPRSPVSYENDYWGQGTQVTVSS | high polyreactivity
13 | QVQLVESGGGIVQAGGSLRLSCAASGRTFRWNVMGCYRPAPGKERELVATISRRSGSTNYADSVKGRFTISRDNAKNTVYLQINSLKPEDTALYYCAVVIVRALVYSGDYWGQGTQVSVSS | low polyreactivity
14 | QVQLVESGGGLVHAGGSLRLSCAASGSTFSYNAMGWYRQAHGKERELVAAITSSGSSTYYADSVKGRFTISRYNAKNTVYLQMNSLKPEDTAVYYCKAEVLFVAGQVQRNSGDYWGQGTQVSVSS | low polyreactivity
15 | QVQLVESGGGLVQAGGSLRLSCAASGSTFYGYTMGWYRQAPGKERELVAVITSGGSTYYADSVKGRFTISRDNAKNTVYLQMNSLKPEDTAVYYCAKRYGYPAYGRPWRIGRTYDYWGQGTQVTVSS | low polyreactivity
16 | QVQLVESGGGLVQGGGSLRLSCAASGSIFYPYAMGWYRQAPGKERELVARITSSTGSTYYADSVKGRCTISRATAKNTVYLQMTSLKPEDTAVYYCNARRQRNKSYNYWGQGTQVTVSS | high polyreactivity

Row | Sequence | polyreactivity (PSR sort gate)
17 | QVQLVESGGGLVHAGGSLRLSCAASGFTFIRYAMGWYRQAPGKERELVAAIRGTGTSTYYADSVKGRFTISRDNAKNTVYFQMNSLKPEDTAVYYCAAVHWWSSSLGMYYWGQGSQVTVSS | low polyreactivity
18 | QVQLVESGGGLVQSGGSLRLSCGASGLIYGPNSMGWYRQAPAKERELVAAITKSGDSTYYADSVKGRFTISRDNAKNTVYLQMNSLKPEDTAVYYCAAEWYPYPWGYGYWGQGTQVTVSS | low polyreactivity
19 | QVQLVESGGGLVQAGGSLRLSCAASGFIFAWYAMGWYRQAPGKERELVAAISYSGGSTYYADSVKGRFTISRDNAKNTVYLEMNSLKPEDTAVYYCNKVSRGGSYGHAFDYWGQGTQVTVSS | high polyreactivity
20 | QVQLVESGGRLVQAGGSLRLTCDASGRTFDYNAMGWYRQAPWKERQLVAAITSRGGSTYYADSVKGRFTISRDNAKNTVYLQMNSLKPEDTAVYYCAAQHSVLAYFEYDYWGQGTQVTVSS | low polyreactivity
21 | QVQLVESGGGVVQAGGSLRFSCAASGRTFVVNAMGWYREAPGKERELVAAITRRGGITYYADSVKGRFTISRDNAKNSVYLQMNSLTPEDTAVYYCAADRSYYPDTRTTYGYNYWGQGTQVTVSS | low polyreactivity
22 | QVQLVESGGGLVQAGGSLRLSCAASGGTFLYYMGWYRQAPGKEMELVAAITFSGGSTYYADSVKGRFTISRDNAKNTVYLQMNSLKPEDTAVYYCAAGWYDWPKYLLSVYTYYLYDSWGQGTQVTVSS | low polyreactivity
23 | QVQLVESGGGLVQAGGSLRLSCAASGSTFTGYAMGWYRQAPGKERELVAAITRGGSTYYADSVKGRFTISRDNAKNTVFLQMNSLKPEDTAVYYCAAKPTSREPTGPRYYYWGQGTQVTVSS | high polyreactivity
24 | QVQLVESGGGLVQAGCSLRLSCASSGRTFSEYAMGWYRQAPGKERELVAAISKGGGSTYYADSVKGRCTISRDNAKNTVYLQMNSLKPEDNAVYYCAKSSHAREYYYWGQGTQVTVSS | low polyreactivity
25 | QVQLGESGGGLVQAGGSLRLSCAASGSTFVDNTMGWYRQAPGKERELVAAITRSGGSTYYADSVKGRFTISRDNAKNTVYLQMNSLNPEDTAVYYCATYPYSPYFYVYVEPYVYWGQGTQVTVSS | low polyreactivity
26 | QVQLVESGGGLVQAGGSLRLSCAASGRIFWYYAMGWYRQAPGKERELVAAINSGGNTNYADSVKGRFTISRDNAKNTVYLQMNSLKPEDTAVYYCNAGRRYDTYPGDYWGQGSQVTVSS | high polyreactivity
27 | QVQLVESGGGLVQAGGSLRLSCAASGRIFGKYAMGWYRQAPGKERELVAANSRSCASTYYADSVKGRFTISRDNAKNTVYLQMNSLKPEDTAVYYCAAVPPYNYRFRVDYWGQGTQVTVSS | high polyreactivity
28 | QVQLVESGGGLVQAGGSLRLSCAASGRIFLWYAMGWYRQAPGKERELVAAISRTGGSTYYADSVKGRFTISRDNAKNTVYLQMNSLKPEDTAVYFCAAYHSYKTSWPQSGYWGQGTQVTVSS | high polyreactivity
29 | QVQLVESGGCLVQAGGSLRLTCAASGSTFDRKARGWYRQAPGKERELVAAITKSGGSTYYADSVKGRFTISRDNAKNTVYLQMNSLKPEDTAVYYCKEFYRAVYPYYYWGQGTQVTVSS | low polyreactivity
30 | QVQLVESGGGIVQAGGSLRLSCAASGRTLPEYAMGWYIQEPGKERELVAAITSSSGSTYYADSVKVRFTISRDNAKNTVYLQMNSLIPEDTAVYYCAAESESGYHDYDYWGQGTQVTVSS | low polyreactivity
31 | QVQLVESGGGLVQAGGSLRLSCAASGRIIGFNAMGWYRQAPGKERELVASIRTTGGSTRYADSVKGRFTISRDNAKNTVYLQMNSLKPEDTAVYDCAARWGKTLWQYNYWGQGTQVTVSS | high polyreactivity
